Results published in US20250228943A1.

Target: TGFβR2-IL18R redirector receptor
Experiment: cell-based or functional assay

TGFβR2-IL18R redirector receptor, sequence (chain, as listed by the source): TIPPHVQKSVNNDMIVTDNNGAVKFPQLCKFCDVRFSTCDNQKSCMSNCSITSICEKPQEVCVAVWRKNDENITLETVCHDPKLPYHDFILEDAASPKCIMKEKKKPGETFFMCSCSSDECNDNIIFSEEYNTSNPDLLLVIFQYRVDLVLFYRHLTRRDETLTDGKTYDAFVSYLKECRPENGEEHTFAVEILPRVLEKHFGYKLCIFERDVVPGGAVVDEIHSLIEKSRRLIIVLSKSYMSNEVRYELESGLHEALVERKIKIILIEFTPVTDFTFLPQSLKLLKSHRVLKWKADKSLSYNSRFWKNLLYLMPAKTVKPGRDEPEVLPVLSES

- percent CD69^+CD25^+ effector cells after five rounds of co-culture with TGFβ (flow cytometry): 61.6%
Substance: TGFβ (ligand)
